Here are results for 3 molecules from PMC2504287 (Nucleic Acids Research, 2008).

In series [1] the target is T1, C.Esp1396I controller protein (UniProt Q8GGH0 1-79).
T1 sequence: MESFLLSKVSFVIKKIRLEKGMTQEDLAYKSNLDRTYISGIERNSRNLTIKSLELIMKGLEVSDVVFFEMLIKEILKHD
As to the kind of experiment: EMSA.

Series [2] concerns the molecule itself.
Series [3] concerns the molecule itself. As to the kind of experiment: native gel or EMSA. Background: A gel shift assay detects complexes by their altered migration in electrophoresis.

B1: OL (OR mutated) (dsDNA)
DNA 1: ATGTGACTTATAGTCCGTCTAGCCTAGCCTAGCCT
DNA 2: AGGCTAGGCTAGGCTAGACGGACTATAAGTCACAT
As for B1, the binding result in series [1] was “binds”.

B2: C.Esp1396I controller protein (wild type) (natural protein)
chain: GSHMESFLLSKVSFVIKKIRLEKGMTQEDLAYKSNLDRTYISGIERNSRNLTIKSLELIMKGLEVSDVVFFEMLIKEILKHD
A word on the Kd: it is the concentration at which binding is half-saturated. Read a low Kd as tighter binding. B2 came in with a Kd in series [2] of roughly 600 nM.

B3: C.Esp1396I E25A mutant (natural protein)
chain: GSHMESFLLSKVSFVIKKIRLEKGMTQADLAYKSNLDRTYISGIERNSRNLTIKSLELIMKGLEVSDVVFFEMLIKEILKHD
Consider B3, for which, in series [3], the binding result is “binds”.
